Data published in the supplement of paper PMC9170038.

Tested on: MS2 coat protein
Experiment: apparent KD of MS2 coat protein; designed switch direction (-1 OFF switch, 1 ON switch): -1; higher = weaker reporter binding
Outline: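 SNAP-549-labelled MS2 coat protein was titrated, doubling from 0.7 or 1.5 nM to 3 µM, over designed RNA switches transcribed on Illumina chips by stalled E. coli RNA polymerase. Runs were done without input, with 200 uM small-molecule ligand, or with an oligonucleotide input. Apparent KD is the per-design median over clusters of curve-fitted normalised fluorescence.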

[1] = input ligand: microRNA oligo, concentration not stated

Sequence | apparent KD of MS2 coat protein (input ligand: FMN 200 uM) [nM] | apparent KD of MS2 coat protein [1] [nM] | apparent KD of MS2 coat protein (input ligand: none) [nM]
UACAUGAGGAUCACCCAUGUUUUGUCGUGUAUGGUAUUUAUCUAGGAUAUCAAUUUAGUUAGUUAUGAGAAGGAGAAUAUUAAU [JMF's solution 76] (Eterna round: R96, puzzle: Exclusion NG 3) | 48 | 21.1 | 43.8
UACAUGAGGAUCACCCAUGUUUUGUCGUGUAUGGUAUUUAUCUAGGAUAUCAAUUUAUUUAAUUAUGAGAAGGAGAAUAUUAAU [JMF's solution 21] (Eterna round: R96, puzzle: Exclusion NG 3) | 36.3 | 27.7 | 34.7
UACAUGAGGAUCACCCAUGUUUUGUCGUGUAUGGUAUUUAUCUAGGAUAUCAGGUUAUUUAUUUAUGAGAAGGAGAAUAUUAAU [JMF's solution 25] (Eterna round: R96, puzzle: Exclusion NG 3) | 33.3 | 37.5 | 34.3
UACAUGAGGAUCACCCAUGUUUUGUCGUGUAUGGUAUUUAUCUAGGAUAUCAGUUUAUUUAUUUAUGAGAAGGAGAAUAUUAAU [JMF's solution 7] (Eterna round: R96, puzzle: Exclusion NG 3) | 28 | 22.4 | 32.7
UACAUGAGGAUCACCCAUGUUUUGUCGUGUAUGGUAUUUAUCUAGGAUAUCGAUUUAUUUAACCACGAGAAGGAGAGUAUCAAU [MOD Solution 21 by JMF] (Eterna round: R96, puzzle: Exclusion NG 3) | 46.4 | 36.8 | 44.1
UACAUGAGGAUCACCCAUGUUUUGUCGUGUAUGGUAUUUAUCUAGGAUAUCGUUUUAUUUAACCACGAGAAGGAGAGUAUCAAU [MOD2 Solution 21 by JMF] (Eterna round: R96, puzzle: Exclusion NG 3) |  | 33.9 | 39.7
UACAUGAGGAUCACCCAUGUUUUGUCGUGUUUGGUACCCGUUUAGGAUAUCGUGUUAUUGGACCGCGAGAAGGAGAGUAUCAUU [Excl-NG3-LRO06] (Eterna round: R96, puzzle: Exclusion NG 3) | 32.2 | 18.4 | 39.9
UACAUGUGAGGAUAUUAGUAGUAAAUAAAUAAAAUUAUUACUGAGAAGGUACAUGAGGAUCACCCAUGUUCCUU [Salish 062 v23] (Eterna round: R97, puzzle: Exclusion 4) | 17.5 |  | 12.7
UACCCGUGAGGAUAUAGAGUCCUACACAUGAGGAUCACCCAUGUCAGCCUUAUCGUGGAUCUAGAAGGCAUAAACG [Eternabot (L1) Solution 88] (Eterna round: R97, puzzle: Exclusion 5) | 103 |  | 183
UACCUAUAGGUAGGAUAUCAUUGCGAUUAGCUAUGAGAAGGACCACAUGAGGAUCACCCAUGUCCUCCAAUUAACCGAAAGGUA [Fiskers ExNg1 - 2] (Eterna round: R96, puzzle: Exclusion NG 1) | 77.3 | 39.7 | 50.4
UACCUGAGGCAAAGCUUUAGGCUUACAUGAGGAUCACCCAUGUAGGAUAUGGUAGGCUUUGCUUACCAGAAGGACAUGGAAAUU [Mat - Exclusion NG 3 - Mod of JL - D22] (Eterna round: R96, puzzle: Exclusion NG 3) | 64.3 | 18 | 19.1
UACCUGAGGCUUUGCUUUAGGCUUACAUGAGGAUCACCCAUGUAGGAUAUGGUAGGCAAAGCUUACCAGAAGGACAUGGAAAUU [Mat - Exclusion NG 3 - Mod of JL - D21] (Eterna round: R96, puzzle: Exclusion NG 3) |  | 13.2 | 
UACGAAGAGUGAGGAUAUGUGCGACAAAGUUGCACAGAAGGCACAUGAGGAUCACCCAUGUGAGCUAGGUCGAAAGACCUAGCG [Omei Exc(NG)1 Av6] (Eterna round: R96, puzzle: Exclusion NG 1) | 37 | 13.6 | 19.7
